Measurements as given in patent EP1644414B1 (Crucell Holland B.V., dated 2015).

B1: 03-013 (antibody, V domains shown)
VH: EVQLVESGGGLVQPGGSLRLSCAASGFTFSDHYMDWVRQAPGKGLEWVGRTRNKANSYTTEYAASVKGRFTISRDDSKNSLYLQMNSLKTEDTAVYYCAKGLTPLYFDYWGQGTLVTVSS
VL: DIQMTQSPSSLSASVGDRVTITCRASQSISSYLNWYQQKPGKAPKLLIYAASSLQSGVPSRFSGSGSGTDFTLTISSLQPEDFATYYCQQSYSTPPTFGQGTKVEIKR
B2: 03-014 (antibody, V domains shown)
VH: EVQLVESGGGLVQPGGSLRLSCAASGFTFSDHYMDWVRQAPGKGLEWVGRTRNKANSYTTEYAASVKGRFTISRDDSKNSLYLQMNSLKTEDTAVYYCARGISPFYFDYWGQGTLVTVSS
VL: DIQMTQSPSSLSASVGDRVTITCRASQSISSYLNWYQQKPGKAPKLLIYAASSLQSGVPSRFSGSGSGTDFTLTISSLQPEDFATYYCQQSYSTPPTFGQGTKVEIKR
B3: 03-001 (antibody, V domains shown)
VH: EVQLVESGGGLVKPGGSLRLSCAASGFTFSGYSMNWVRQAPGKGLEWVSSISGGSTYYADSRKGRFTISRDNSKNTLYLQMNNLRAEDTAVYYCARHRFRHVFDYWGQGTLVTVSS
VL: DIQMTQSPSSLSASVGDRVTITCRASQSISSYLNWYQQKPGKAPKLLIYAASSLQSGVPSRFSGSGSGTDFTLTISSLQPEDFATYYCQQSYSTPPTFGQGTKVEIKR
B4: 03-002 (antibody, V domains shown)
VH: EVQLVESGGGLVKPGGSLRLSCAASGFTFSGYSMSWVRQAPGKGLEWVGRTRNKANSYTTEYAASVKGRFTISRDDSKNSLYLQMNSLKTEDTAVYYCARYYSRSLKAFDYWGQGTLVTVSS
VL: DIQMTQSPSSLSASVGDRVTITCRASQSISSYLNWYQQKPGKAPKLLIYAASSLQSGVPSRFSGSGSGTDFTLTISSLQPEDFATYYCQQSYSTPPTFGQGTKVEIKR
B5: 03-006 (antibody, V domains shown)
VH: EVQLVESGGGLVQPGGSLRLSCAASGFTFSGYPMHWVRQAPGKGLEWVAVISYDGSNKYYADSVKGRFTISRDNSKNTLYLQMNSLRAEDTAVYYCAKDGSPRTPSFDYWGQGTLVTVSS
VL: DIQMTQSPHSLSASVGDRVTITCRASQGISNYLAWYQQKPGKVPKLLIYAASTLQSGVPSRFSGSGSGTDFTLTISSLQPEDVGVYYCQQRFRTPVTFGQGTKLEIKR
B6: 03-015 (antibody, V domains shown)
VH: EVQLVESGGGVVRPGGSLRLSCAASGFTFDDYGMSWVRQAPGKGLEWVSGINWNGGSTGYADSVKGRFTISRDNAKNSLYLQMNSLRAEDTAVYYCARGLSLRPWGQGTLVTVSS
VL: SSELTQDPAESVALGQTVRITCQGDSLRSYYASWYQQKPGQAPVLVIYGKNNRPSGIPDRFSGSSSGNTASLTITGAQAEDEADYYCNSRDSSGNHVVFGGGTKLTVLG
B7: 03-009 (antibody, V domains shown)
VH: EVQLVESGGGVVQPGRSLRLSCAASGFTFSDYPMNWVRQAPGKGLEWVSSISGSGGSTYYADSVKGRFTISRDNSKNTLYLQMNSLRAEDTAVYYCAKGLFMVTTYAFDYWGQGTLVTVSS
VL: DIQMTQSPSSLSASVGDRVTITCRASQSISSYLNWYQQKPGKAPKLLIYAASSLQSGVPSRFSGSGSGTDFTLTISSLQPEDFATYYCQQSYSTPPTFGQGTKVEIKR

Legend:
[1] = biological target: S565 fragment (amino acids 1-565 of the S protein of SARS-CoV), myc-tagged (SARS-CoV strain Frankfurt 1, UniProt P59594 14-565); test: IgG ELISA on captured S565
[2] = biological target: S318-510 fragment (amino acids 318-510 of the S protein of SARS-CoV strain Frankfurt 1) (SARS-CoV strain Frankfurt 1, UniProt P59594 318-510); test: IgG ELISA on captured S318-510
[3] = biological target: spike protein of SARS-CoV as present in the SARS-CoV preparation (SARS-CoV strain Frankfurt 1, UniProt P59594 14-1255); test: sandwich ELISA, detection with anti-spike rabbit sera IMG-542 and IMG-557
[4] = biological target: full length S protein of SARS-CoV expressed on HEK293T cells (SARS-CoV strain Frankfurt 1, UniProt P59594 14-1255); test: flow cytometry, IgG 10 µg/ml

Binder | binding result [1] | binding result [2] | binding result [3] | binding result [4]
B1 | binds | binds | binds | binds
B2 | binds | binds |  | 
B3 |  | no binding |  | 
B4 |  | no binding |  | 
B5 | binds | binds |  | binds
B6 | no binding | no binding |  | binds
B7 |  | no binding |  | 
